Legend:
[1] = determined previously (Auton:2009); cited from earlier work
[2] = Conformational and thermodynamic classification of A1 domain variants (urea and thermal denaturation, CD, FL, ANS); format: physicochemical
Description: Circular dichroism measurements were performed on a Model No. 420C circular-dichroism spectrometer (Aviv Biomedical, Inc., Lakewood Township, N.J.). All fluorescence (FL) measurements were performed on a Fluorolog3 spectrofluorometer (HORIBA Jobin-Yvon, Edison, N.J.) equipped with a Model No. LF1-3751 temperature controller (Wavelength Electronics Inc., Bozeman, Mont.). Near- and far-ultraviolet (UV) circular dichroism (CD), intrinsic protein FL, and ANS (8-anilino naphthalene sulfonic acid) […] spectra were determined as described in Tischer et al. (19). Urea denaturation (monitored by far-UV CD) and thermal denaturation (monitored by far-UV CD, intrinsic protein FL, and ANS FL) were performed and analyzed as previously described (19,20). Acrylamide quenching of intrinsic tryptophan fluorescence was performed and analyzed as described in Tischer et al. (19). All spectra were collected at 20° C.
The effects of mutations on the thermodynamic stability of A1 (18) was determined and a framework that incorporated partial unfolding as a means for enhancing the binding affinity of A1 for GPIba was developed (17). Initially, urea-temperature phase diagram method were used for assessing the reversible thermodynamics of unfolding at various temperatures (18,21), and more recently thermal denaturations were used to assess kinetic irreversibility (20,22). The inventor employed these methods using a variety of spectroscopic observables that assess the conformation of these A1 domain variants as a function of temperature and urea.
The observables included the following: (1) Far-UV CD to assess secondary structure content; (2) Near-UV CD to assess tertiary structure content; (3) Intrinsic protein FL to assess solvent exposure of tyrosine and tryptophan residues; (4) Acrylamide quenching of tryptophan FL to assess local solvent exposure of the single tryptophan residue; and (5) Binding of the molten globule indicator-dye, ANS, to assess exposure of hydrophobic surface area.
In total, these studies have provided metrics that are able to classify the conformation of A1 into three types, based on biophysical spectroscopy, as follows:
The type 2B mutations R1306Q and I1309V and the type 2M mutation G1324S have previously been characterized in this conformational class (18). In addition, R1308L and I1372S also belong to this class.
The type 2M mutation A1437T and the type 2B mutation R1341Q belong to this class.
The type 2M mutations F1369I, E1359K, I1425F, S1285F, and R1374H, and the type 2B mutations H1268D, P1337L, V1316M, and V1314D, belong to this class.

platelet GPIbα = molecular target: T1, platelet GPIbα (Homo sapiens, UniProt P07359); experiment: Platelet pause times on surface-captured A1 domain variants, parallel plate flow chamber (Table 4, Example 3); format: cell-based; conditions: shear rate 1500 s^−1; mean ± std. dev., number of measurements in parentheses; NB = No Binding
T1 construct: endogenous in cells; host or cells: platelets in citrated whole blood of normal healthy volunteer donors
Description: The determination and analysis of platelet pause times and instantaneous translocation velocities over surface captured A1 and RCAM A1 was performed as previously described (Tischer:2013). Here, the inventor used the Cellix Mims Evo syringe pump controlled by VenaFluxAssay (www.cellixltd.com). Vena8™ CGS biochips were custom designed with 800 μm width by 80 μm height microchannels bonded to glass slides with a Cu^2+ chelated PEG surface serviced by Microsurfaces Inc. (www.proteinslides.com/histag.html) to which the A1 and RCAM A1 in TBS were captured by the 6×His-Tag at a total concentration of 5 μM. Citrated whole blood was obtained from the informed consent of healthy volunteer donors with approval from the Mayo Clinic Institutional Review Board and 100 μL was perfused over the surface captured A1 domains at 700 s^−1. The shear was increased or decreased in a stepwise manner to measure the dynamics of platelet adhesion at high and low shear. After allowing the flow chamber to equilibrate for 50 s at each shear rate, 1 min movies were recorded at 24 frames per second in phase contrast at 200× magnification with 2×2 pixel binning on a Zeiss AxioCam Mrm camera (6.45 μm/px) attached to a Zeiss Axio Observer.D1 inverted microscope. Tracking analysis was performed using MediaCybernetics ImagePro® Premier (www.mediacy.com/index.aspx?page=IP\_Premier) The distance travelled in the direction of flow was calculated from the coordinate data for each platelet as a function of time using √{square root over ((xt−x0)^2)}, where x0 is the coordinates of a platelet on the first frame of the movie and xt is the coordinate on subsequent frames of the movie. These trajectories were differentiated into instantaneous velocities using a Savitzky-Golay algorithm (Savitzky:1964) with a five data point window size and a second order polynomial implemented into a Mathematica (www.wolfram.com/mathematica) notebook written in our lab. Trajectories were retained for statistical analysis if the platelet was present for ≧1 s and travelled a total distance greater than 1 Distance travelled in pixels (px) was converted to (μm) using 6.45 μm/px*2/200=0.0645 μm/px. Pause times were determined by the amount of time (sec) a platelets velocity was 0±4 px/s≅0±0.23 μm/s, within the noise. Data are reported as mean velocities and pause times attained by individual platelets averaged over all platelets analyzed. Integral analysis of the cumulative pause time histogram gives the survival fraction, equation (24).
The rheological interaction of platelets with A1 domain variants harboring type 2M and type 2B mutations was studied using recently developed flow-chamber methods (19). The A1 domains ([…]) were immobilized on Vena8™ biochips (Cellix, Dublin, Ireland) coated with a Cu^2+-chelated poly-ethylene-glycol surface serviced by MicroSurfaces, Inc. (Englewood, N.J.) via the 6×His-Tag, enabling the preservation of the structural properties of the domain in solution and its concomitant effects on platelet adhesion under rheological shear flow. One-hundred microliters of citrated whole blood, obtained from the informed consent of normal healthy volunteer donors with approval from the Mayo Clinic Institutional Review Board (Rochester, Minn.), was perfused at a shear rate of 800 s^−1 followed by Tris-buffered saline. Platelets translocating on the surface-captured domains were filmed at 24 frames/s for 1 min at logarithmic intervals of the shear rate. Coordinates obtained from tracking analysis of the resulting movies were processed using the inventor recently developed statistical analytics for the quantification of cellular adhesion dynamics across immobilized receptors under rheological shear flow (supra). Biochips lacking the surface-captured A1 domain were completely inert to platelets.

For “A1-1238: Recombinant human vWF A1 domain, amino acids Q1238-P1471, with N-terminal 6×His-Tag, disulfide intact”, the “Tm from reversible N<->I urea-temperature phase diagram” value [1] is listed as 51.1±0.5 ° Celsius, the “A1 domain Conformation” value [2] is listed as “N (N = “Native” (native structure with varying thermodynamic stability))” and the “Pause Time 1500 s^−1 (s)” value (platelet GPIbα) is listed as 0.67 ± 0.07 (6) s.
